# Patent publication US20260242419A1, “A CYCLIC PEPTIDE FOR TRAPPING INTERLEUKIN-1 BETA” (Merck Sharp & Dohme LLC, priority 2023, published 2026)
# Starred links: 1 amine or outer side, 2 acyl side, 3 side chain; linkers in the order of their positions; H or OH if unused. Non-standard residues stand in square brackets, D forms with d. PyrimAla4Ph4CO2H = 4-[5-[(2S)-2-amino-2-carboxy-ethyl]pyrimidin-2-yl]benzoic acid, O=C([C@H](Cc1cnc(-c2ccc(C(=O)[*:3])cc2)nc1)N[*:1])[*:2]; Phe(4-(5-CO2H-2-pyrimidyl)) = N[C@@H](Cc1ccc(-c2ncc(C(=O)O)cn2)cc1)C(=O)O; Phe(4-(4-Ac-piperazinyl)) = CC(=O)N1CCN(c2ccc(C[C@H](N)C(=O)O)cc2)CC1; dPro(4R-(4-pyridylmethyl)) = O=C(O)[C@H]1C[C@@H](Cc2ccncc2)CN1; Trp(βS-Me,4-F) = C[C@@H](c1c[nH]c2cccc(F)c12)[C@H](N)C(=O)O; Bip(4'-COOH) = N[C@@H](Cc1ccc(-c2ccc(C(=O)O)cc2)cc1)C(=O)O; Ala(1-bicyclo(1.1.1)pentyl) = N[C@@H](CC12CC(C1)C2)C(=O)O; dPro(4R-Bzl(4-F)) = O=C(O)[C@H]1C[C@@H](Cc2ccc(F)cc2)CN1; Ala(pyrimidin-5-yl) = N[C@@H](Cc1cncnc1)C(=O)O; Phe(4-COOH) = N[C@@H](Cc1ccc(C(=O)O)cc1)C(=O)O; Pro(cis-4-F) = O=C(O)[C@@H]1C[C@H](F)CN1; 4Pal = N[C@@H](Cc1ccncc1)C(=O)O; Dab = NCC[C@H](N)C(=O)O; Aib = CC(C)(N)C(=O)O
# B1: SEQ ID NO: 87 (peptide)
# peptide: cyclo([Phe(4-(5-CO2H-2-pyrimidyl))][Ala(1-bicyclo(1.1.1)pentyl)][Phe(4-COOH)]G[Pro(cis-4-F)][Trp(βS-Me,4-F)][Aib]AW[Aib][Ala(pyrimidin-5-yl)]Q[Dab]G[dPro(4R-(4-pyridylmethyl))])
# SMILES: C[C@@H]1NC(=O)C(C)(C)NC(=O)[C@H]([C@@H](C)c2c[nH]c3cccc(F)c23)NC(=O)[C@@H]2C[C@H](F)CN2C(=O)CNC(=O)[C@H](Cc2ccc(C(=O)O)cc2)NC(=O)[C@H](CC23CC(C2)C3)NC(=O)[C@H](Cc2ccc(-c3ncc(C(=O)O)cn3)cc2)NC(=O)[C@H]2C[C@@H](Cc3ccncc3)CN2C(=O)CNC(=O)[C@H](CCN)NC(=O)[C@H](CCC(N)=O)NC(=O)[C@H](Cc2cncnc2)NC(=O)C(C)(C)NC(=O)[C@H](Cc2c[nH]c3ccccc23)NC1=O
# B2: SEQ ID NO: 92 (peptide)
# peptide: cyclo([PyrimAla4Ph4CO2H][Ala(1-bicyclo(1.1.1)pentyl)][Phe(4-COOH)]G[Pro(cis-4-F)][Trp(βS-Me,4-F)][Aib]EW[Aib][Ala(pyrimidin-5-yl)]Q[Dab]G[dPro(4R-Bzl(4-F))])
# SMILES: C[C@@H](c1c[nH]c2cccc(F)c12)[C@@H]1NC(=O)[C@@H]2C[C@H](F)CN2C(=O)CNC(=O)[C@H](Cc2ccc(C(=O)O)cc2)NC(=O)[C@H](CC23CC(C2)C3)NC(=O)[C@H](Cc2cnc(-c3ccc(C(=O)O)cc3)nc2)NC(=O)[C@H]2C[C@@H](Cc3ccc(F)cc3)CN2C(=O)CNC(=O)[C@H](CCN)NC(=O)[C@H](CCC(N)=O)NC(=O)[C@H](Cc2cncnc2)NC(=O)C(C)(C)NC(=O)[C@H](Cc2c[nH]c3ccccc23)NC(=O)[C@H](CCC(=O)O)NC(=O)C(C)(C)NC1=O
# B3: SEQ ID NO: 89 (peptide)
# peptide: cyclo([Phe(4-(5-CO2H-2-pyrimidyl))][Ala(1-bicyclo(1.1.1)pentyl)][Phe(4-COOH)]G[Pro(cis-4-F)][Trp(βS-Me,4-F)][Aib]SW[Aib][4Pal]Q[Dab]G[dPro(4R-(4-pyridylmethyl))])
# SMILES: C[C@@H](c1c[nH]c2cccc(F)c12)[C@@H]1NC(=O)[C@@H]2C[C@H](F)CN2C(=O)CNC(=O)[C@H](Cc2ccc(C(=O)O)cc2)NC(=O)[C@H](CC23CC(C2)C3)NC(=O)[C@H](Cc2ccc(-c3ncc(C(=O)O)cn3)cc2)NC(=O)[C@H]2C[C@@H](Cc3ccncc3)CN2C(=O)CNC(=O)[C@H](CCN)NC(=O)[C@H](CCC(N)=O)NC(=O)[C@H](Cc2ccncc2)NC(=O)C(C)(C)NC(=O)[C@H](Cc2c[nH]c3ccccc23)NC(=O)[C@H](CO)NC(=O)C(C)(C)NC1=O
# B4: SEQ ID NO: 86 (peptide)
# peptide: cyclo([Phe(4-(5-CO2H-2-pyrimidyl))][Ala(1-bicyclo(1.1.1)pentyl)][Phe(4-COOH)]G[Pro(cis-4-F)][Trp(βS-Me,4-F)][Aib]EW[Aib][4Pal]Q[Dab]G[dPro(4R-(4-pyridylmethyl))])
# B5: SEQ ID NO: 90 (peptide)
# peptide: cyclo([Phe(4-(4-Ac-piperazinyl))][Ala(1-bicyclo(1.1.1)pentyl)][Phe(4-COOH)]G[Pro(cis-4-F)][Trp(βS-Me,4-F)][Aib]EW[Aib][4Pal]Q[Dab]G[dPro(4R-Bzl(4-F))])
# B6: SEQ ID NO: 91 (peptide)
# peptide: cyclo([PyrimAla4Ph4CO2H][4Pal][Phe(4-COOH)]G[Pro(cis-4-F)][Trp(βS-Me,4-F)][Aib]EW[Aib][Ala(pyrimidin-5-yl)]Q[Dab]G[dPro(4R-Bzl(4-F))])
# SMILES: C[C@@H](c1c[nH]c2cccc(F)c12)[C@@H]1NC(=O)[C@@H]2C[C@H](F)CN2C(=O)CNC(=O)[C@H](Cc2ccc(C(=O)O)cc2)NC(=O)[C@H](Cc2ccncc2)NC(=O)[C@H](Cc2cnc(-c3ccc(C(=O)O)cc3)nc2)NC(=O)[C@H]2C[C@@H](Cc3ccc(F)cc3)CN2C(=O)CNC(=O)[C@H](CCN)NC(=O)[C@H](CCC(N)=O)NC(=O)[C@H](Cc2cncnc2)NC(=O)C(C)(C)NC(=O)[C@H](Cc2c[nH]c3ccccc23)NC(=O)[C@H](CCC(=O)O)NC(=O)C(C)(C)NC1=O
# B7: SEQ ID NO: 88 (peptide)
# peptide: cyclo([Phe(4-(5-CO2H-2-pyrimidyl))][Ala(1-bicyclo(1.1.1)pentyl)][Phe(4-COOH)]G[Pro(cis-4-F)][Trp(βS-Me,4-F)][Aib]AW[Aib][4Pal]Q[Dab]G[dPro(4R-(4-pyridylmethyl))])
# SMILES: C[C@@H]1NC(=O)C(C)(C)NC(=O)[C@H]([C@@H](C)c2c[nH]c3cccc(F)c23)NC(=O)[C@@H]2C[C@H](F)CN2C(=O)CNC(=O)[C@H](Cc2ccc(C(=O)O)cc2)NC(=O)[C@H](CC23CC(C2)C3)NC(=O)[C@H](Cc2ccc(-c3ncc(C(=O)O)cn3)cc2)NC(=O)[C@H]2C[C@@H](Cc3ccncc3)CN2C(=O)CNC(=O)[C@H](CCN)NC(=O)[C@H](CCC(N)=O)NC(=O)[C@H](Cc2ccncc2)NC(=O)C(C)(C)NC(=O)[C@H](Cc2c[nH]c3ccccc23)NC1=O
# B8: SEQ ID NO: 85 (peptide)
# peptide: cyclo([Phe(4-(5-CO2H-2-pyrimidyl))][4Pal][Phe(4-COOH)]G[Pro(cis-4-F)][Trp(βS-Me,4-F)][Aib]AW[Aib][4Pal]Q[Dab]G[dPro(4R-(4-pyridylmethyl))])
# SMILES: C[C@@H]1NC(=O)C(C)(C)NC(=O)[C@H]([C@@H](C)c2c[nH]c3cccc(F)c23)NC(=O)[C@@H]2C[C@H](F)CN2C(=O)CNC(=O)[C@H](Cc2ccc(C(=O)O)cc2)NC(=O)[C@H](Cc2ccncc2)NC(=O)[C@H](Cc2ccc(-c3ncc(C(=O)O)cn3)cc2)NC(=O)[C@H]2C[C@@H](Cc3ccncc3)CN2C(=O)CNC(=O)[C@H](CCN)NC(=O)[C@H](CCC(N)=O)NC(=O)[C@H](Cc2ccncc2)NC(=O)C(C)(C)NC(=O)[C@H](Cc2c[nH]c3ccccc23)NC1=O
# B9: SEQ ID NO: 9 (peptide)
# peptide: cyclo([Bip(4'-COOH)][4Pal][Phe(4-COOH)]G[Pro(cis-4-F)][Trp(βS-Me,4-F)][Aib]EW[Aib][Ala(pyrimidin-5-yl)]QKG[dPro(4R-Bzl(4-F))])
# SMILES: C[C@@H](c1c[nH]c2cccc(F)c12)[C@@H]1NC(=O)[C@@H]2C[C@H](F)CN2C(=O)CNC(=O)[C@H](Cc2ccc(C(=O)O)cc2)NC(=O)[C@H](Cc2ccncc2)NC(=O)[C@H](Cc2ccc(-c3ccc(C(=O)O)cc3)cc2)NC(=O)[C@H]2C[C@@H](Cc3ccc(F)cc3)CN2C(=O)CNC(=O)[C@H](CCCCN)NC(=O)[C@H](CCC(N)=O)NC(=O)[C@H](Cc2cncnc2)NC(=O)C(C)(C)NC(=O)[C@H](Cc2c[nH]c3ccccc23)NC(=O)[C@H](CCC(=O)O)NC(=O)C(C)(C)NC1=O
# Molecular target: Recombinant human IL-1β (BioLegend 579404) (human, UniProt P01584 117-269)
# Assay: cell-based or functional assay
row,MRC5 IC50,Binder
1,0.087 nM,B1
2,0.07 nM,B2
3,0.045 nM,B3
4,0.075 nM,B4
5,0.064 nM,B5
6,0.054 nM,B6
7,0.083 nM,B7
8,0.074 nM,B8
9,0.028 nM,B9
